Measured values from patent publication US20130309233A1 (SORRENTO THERAPEUTICS, published 2013).
Where two headings read alike, the source gives them in different places.

Tests used:
[1] = target: T1, EGFR expressed on the surface of cells (A431, A549, MCF7 and other EGFR-expressing cell lines) (human, UniProt P00533 25-1210); assay: binding of purified IgG to EGFR-expressing cell lines
T1 construct: whole, on cells; also called EGF Receptor; cell surface EGFR

[2] = target: T1, EGFR expressed on the surface of cells …; assay: cell-based or functional assay
[3] = target: T1, EGFR expressed on the surface of cells …; assay: cell-based or functional assay; remark: listed apart in the source
[4] = target: T1, EGFR expressed on the surface of cells …; assay: cell-based or functional assay; remark: listed apart in the source

| Binder | IC50 (M), inhibition of EGF-stimulated EGFR auto-phosphorylation in A549 cells [2] [M] | IC50 (M), inhibition of EGF-stimulated EGFR auto-phosphorylation in A549 cells [4] [M] | further results |
| --- | --- | --- | --- |
| B1 (antibody, IgG1, V domains shown) VH: QVQLVQSGGGVVQPGRSLRLSCAASGFIFNHYAMHWVRQAPGKGLEWVAHISSDGSYKFYADSVKGRFTVSRDNSDNTVYLQMNSLGPEDTAVYHCARFTEVLYYGADYWGQGTLVTVSS VL: not shown |  |  | binding result [1]: binds |
| D2 GB8 (antibody, V domains shown) VH: EVQLVESGGGVVQPGRSLRLSCAASGFIFHHYAMHWVRQAPGKGLEWVAHISPDGSYKFYADSVKGRFTVSRDNSKNTLYLQMNSLRAEDTAVYYCARFTEVLYYGADIWGQGTLVTVSS VL: QSVLTQPPSVSEAPRQRVSISCSGSSSNIGNNAVNWYQQLPGKAPKLLIYYDDLLPSGVSNRFSGSKSGTSASLAISGLQSEDEADYYCAAWDDSLKGYVFGTGTKVTVL | 8.6e-10 |  |  |
| D2GA4 (antibody, V domains shown) VH: EVQLVESGGGVVQPGRSLRLSCAASGFIFHHYAMHWVRQAPGKGLEWVAHISSDGSSKFYADSVKGRFTVSRDNSKNTLYLQMNSLRAEDTAVYYCARFTEVLYYGADLWGQGTLVTVSS VL: QSVLTQPPSVSEAPRQRVSISCSGSSSNIGDNAVNWYQQLPGKAPKLLIYYDDLHPSGVSDRFSGSKSGTSASLAISGLQSEDEADYYCAAWDDSLKGYVFGTGTKVTVL | 1.7e-10 |  |  |
| A5 (antibody, IgG1, V domains shown) VH: EVQLVQSGAEVKKPGASVKVSCKASGGTFSSYAISWVRQAPGQGLEWMGGIIPILGTADYAQKFQGRVTITADESTSTAYMELSSLRSEDTAVYYCARDEIPLEYCTSTSCYHAFDIWGQGTMVTVSS VL: not shown |  |  | decrease in EGF stimulated receptor phosphorylation assay in EGFR positive cells (A431) [3]: ~10% |
| B4 (antibody, IgG1, V domains shown, also called EGFR-B4) VH: QVQLVQSGAEVKKPGSAVKVSCKASGGTFSSYAISWVRQAPGQGLEWMGGIIPILGTADYAQKFQGRVTITADESTSTAYMELSSLRSEDTAVYYCARDEIPLEYCTSTSCYHAFDIWGQGTMVTVSS VL: NIQMTQSPPSLSAFVGDRVTITCQASQAINNYLNWYQQKPGKAPKLLIYDASNLETGVPSRFSGSGSGTDFTFTISSLQPEDNATYYCQQYDKLPLTFGGGTKVEIK |  |  | binding result [1]: binds |
| D6 (antibody, IgG1, V domains shown, also called EGFR-D6) VH: EVQLVQSGAEVKKPGSAVKVSCKASGGTFSSYAISWVRQAPGQGLEWMGGIIPILGTADYAQKFQGRVTITADESTSTAYMELSSLRSEDTAVYYCARDEIPLEYCTSTSCYHAFDIWGRGTMVTVSS VL: AIQLTQSPSTLSASVGDRVTITCRASQSISSWLAWYQQKPGKAPKLLIYAASSLQSGVPSRFSGSGSGTDFTLTISSLQPEDFATYYCQQSYSTPLTFGGGTKVEIK |  |  | binding result [1]: binds |
| A6-A1 (antibody, V domains shown) VH: QVQLVQSGAEVKKPGSSVKVSCKASGGTFRNHAWSWVRQAPGQGLEWMGWISAYNGYTHYASKLQGRVTMTTDTSTSTAYMELRSLRSDDTAVYYCARVSAEYAEDWSLHYYYMDVWGQGTLVTVSS VL: QSVLTQPPSVSAAPGQEVTISCSGSNSNIGNNYVSWYQQLPGTAPKLLIYDNNERPSGIPDRFSGSKSGTSATLGITGLQTGDEADYYCSTWDSSLSAVVFGGGTKLTVL |  | 5.1e-10 |  |
| A6-A4 (antibody, V domains shown) VH: QVQLVQSGAEVKKPGSSVKVSCKASGGTFRNHAYSWVRQAPGQGLEWMGWISAYNGYTTYASKLQGRVTMTTDTSTSTAYMELRSLRSDDTAVYYCARVSASYNSDWSLHYYYGMDVWGQGTLVTVSS VL: QSVLTQPPSVSAAPGQEVTISCSGSNSNIENNYVSWYQQLPGTAPKLLIYSNNERPSGIPDRFSGSKSGTSATLGITGLQTGDEADYYCGTFDSSLSAVVFGGGTKLTVL |  | 1.05e-09 |  |
| A6-A5 (antibody, V domains shown) VH: QVQLVQSGAEVKKPGSSVKVSCKASGGTFRNHAYSWVRQAPGQGLEWMGWISAYNGYTHYASKLQGRVTMTTDTSTSTAYMELRSLRSDDTAVYYCARVSASYASDWSLHYYYGMDVWGQGTLVTVSS VL: QSVLTQPPSVSAAPGQEVTISCSGSNSNIGNNYVSWYQQLPGTAPKLLIYDTAERPSGIPDRFSGSKSGTSATLGITGLQTGDEADYYCSTWDSSLSAVLFGGGTKLTVL |  | 1.1e-09 |  |
| A6-A8 (antibody, V domains shown) VH: QVQLVQSGAEVKKPGSSVKVSCKASGGTFRNHAYSWVRQAPGQGLEWMGWISAYNGYTTYAEKLQGRVTMTTDTSTSTAYMELRSLRSDDTAVYYCARVSAEYAEDWSLHYYYGMDVWGQGTLVTVSS VL: QSVLTQPPSVSAAPGQEVTISCSGSNSNIPNNYVSWYQQLPGTAPKLLIYSNSERPSGIPDRFSGSKSGTSATLGITGLQTGDEADYYCSTWDSSLSAALFGGGTKLTVL |  | 6e-10 |  |
| A6-A7 (antibody, V domains shown) VH: QVQLVQSGAEVKKPGSSVKVSCKASGGTFRNHAYSWVRQAPGQGLEWMGWISAYNGYTHYAEKLQGRVTMTTDTSTSTAYMELRSLRSDDTAVYYCARVSAEYNSDWSVHYYYGMDVWGQGTLVTVSS VL: QSVLTQPPSVSAAPGQEVTISCSGSNSNIGPNYVSWYQQLPGTAPKLLIYDNNERPSGIPDRFSGSKSGTSATLGITGLQTGDEADYYCSTFDSSLSAAVFGGGTKLTVL |  | 5.6e-10 |  |
| A6-A3 (antibody, V domains shown) VH: QVQLVQSGAEVKKPGSSVKVSCKASGGTFRNHAWSWVRQAPGQGLEWMGWISAYNGYTTYASKLQGRVTMTTDTSTSTAYMELRSLRSDDTAVYYCARVSASYNEDWSLHYYYGMDVWGQGTLVTVSS VL: QSVLTQPPSVSAAPGQEVTISCSGSNSNIEPNYVSWYQQLPGTAPKLLIYSTAERPSGIPDRFSGSKSGTSATLGITGLQTGDEADYYCSTWDSSLSAVVFGGGTKLTVL |  | 1.1e-09 |  |
| B5 (antibody, IgG1, V domains shown) VH: QMQLVQSWAEVKKPGASVKVSCKASAYTFTNYYIHWVRQAPGQGLEWMGIINPSSGATTYAQRLQGRVIMTRDTSTSTVNMELSSLRSEDTAVYYCARSTLWFSEFDYWGQGTLVTVSS VL: QSVLTQPASVSGSPGQSITISCTGTTSDVGGFNYVSWYQQHPGKVPKLIIFDVSNRPSSVSDRFSGSKSVNTASLTISGLQAEDEADYYCSSYTDSGSYIFGTGTKVTVL |  |  | decrease in EGF stimulated receptor phosphorylation assay in EGFR positive cells (A431) [3]: ~10% |
| D2GA2 (antibody, V domains shown) VH: EVQLVESGGGVVQPGRSLRLSCAASGFIFHHYAMHWVRQAPGKGLEWVAHISPDGSSKFYADSVKGRFTVSRDNSKNTLYLQMNSLRAEDTAVYYCARFTEVLYYGADIWGQGTLVTVSS VL: QSVLTQPPSVSEAPRQRVSISCSGSSSNIGNNAVNWYQQLPGKAPKLLIYFDDLLPSGVSDRFSGSKSGTSASLAISGLQSEDEADYYCAAWDDSLKGYVFGTGTKVTVL | 1.8e-10 |  |  |
| D2GG1 (antibody, V domains shown) VH: EVQLVESGGGVVQPGRSLRLSCAASGFTFSHYAMHWVRQAPGKGLEWVAHISLDGSSKFYADSVKGRFTVSRDNSKNTLYLQMNSLRAEDTAVYYCARFTEVLYYGADLWGQGTLVTVSS VL: QSVLTQPPSVSEAPRQRVSISCSGSSSNIGNNAVNWYQQLPGKAPKLLIYYDDLLPSGVSDRFSGSKSGTSASLAISGLQSEDEADYYCAAWDDSLKGYVFGTGTKVTVL | 8.9e-10 |  |  |
| D2GC1 (antibody, V domains shown) VH: EVQLVESGGGVVQPGRSLRLSCAASGFIFHHYAMHWVRQAPGKGLEWVAHISPDGSSKFYADSVKGRFTVSRDNSKNTLYLQMNSLRAEDTAVYYCARFTEVLYYGADLWGQGTLVTVSS VL: QSVLTQPPSVSEAPRQRVSISCSGSSSNIGNNAVNWYQQLPGKAPKLLIYYDDLLPSGVSDRFSGSKSGTSASLAISGLQSEDEADYYCAAWDDSLKGYVFGTGTKVTVL | 2e-10 |  |  |
| D2GA6 (antibody, V domains shown) VH: EVQLVESGGGVVQPGRSLRLSCAASGFIFHHYAMHWVRQAPGKGLEWVAHISPDGSSKFYADSVKGRFTVSRDNSKNTLYLQMNSLRAEDTAVYYCARFTEVLYYGADIWGQGTLVTVSS VL: QSVLTQPPSVSEAPRQRVSISCSGSSSNIGNNAVNWYQQLPGKAPKLLIYFDDLLPQGVSDRFSGSKSGTSASLAISGLQSEDEADYYCAAWDDSLKGYVFGTGTKVTVL | 2.2e-10 |  |  |
| D2GC4 (antibody, V domains shown) VH: EVQLVESGGGVVQPGRSLRLSCAASGFIFHHYSMHWVRQAPGKGLEWVAHISSDGSSKFYADSVKGRFTVSRDNSKNTLYLQMNSLRAEDTAVYYCARFTEVLYYGADLWGQGTLVTVSS VL: QSVLTQPPSVSEAPRQRVSISCSGSSSNIGNNAVNWYQQLPGKAPKLLIYYDDLLPSGVSDRFSGSKSGTSASLAISGLQSEDEADYYCAAWDDSLKGYVFGTGTKVTV | 2.8e-10 |  |  |
| D2GA5 (antibody, V domains shown) VH: EVQLVESGGGVVQPGRSLRLSCAASGFIFHHYAMHWVRQAPGKGLEWVAHISIDGSSKFYADSVKGRFTVSRDNSKNTLYLQMNSLRAEDTAVYYCARFTEVLYYGADLWGQGTLVTVSS VL: QSVLTQPPSVSEAPRQRVSISCSGSSSNIGNNAVNWYQQLPGKAPKLLIYYDDLLPSGVSDRFSGSKSGTSASLAISGLQSEDEADYYCAAWDDSLKGYVFGTGTKVTVL | 2.3e-10 |  |  |
